First the molecules themselves.
T1: UreA-GST (UreA fused with GST tag on its C-terminus) (Helicobacter pylori 26695, UniProt P14916 1-238)
T1 construct: source: E. coli BL21(DE3), supernatant immobilized on glutathione Sepharose 4B beads; not shown: GST, C-terminal, kept
T1 sequence: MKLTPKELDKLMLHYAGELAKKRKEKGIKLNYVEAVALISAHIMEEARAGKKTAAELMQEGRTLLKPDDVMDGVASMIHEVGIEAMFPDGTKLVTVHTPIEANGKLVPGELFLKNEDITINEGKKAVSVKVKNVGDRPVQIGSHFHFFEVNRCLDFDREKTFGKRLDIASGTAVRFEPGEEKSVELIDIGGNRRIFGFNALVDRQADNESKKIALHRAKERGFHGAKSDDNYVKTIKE

B1: UreA-His (urease α subunit fused with a His tag on its C-terminus) (natural protein)
chain: T1 sequence
notes: also called wild-type UreA-His; urease subunit α; source: E. coli BL21(DE3), purified (Ni-NTA); not shown: His tag, C-terminal, kept
B2: UreA-His K26A (natural protein)
chain: T1 sequence with K26A
notes: source: E. coli BL21(DE3), purified as wild-type UreA-His; not shown: His tag, C-terminal, kept
B3: UreA-His E25A (natural protein)
chain: T1 sequence with E25A
notes: as for B2
B4: UreA-His D68A (natural protein)
chain: T1 sequence with D68A
notes: as for B2
B5: UreA-His K66A (natural protein)
chain: T1 sequence with K66A
notes: as for B2
B6: UreA-His Y15A (natural protein)
chain: T1 sequence with Y15A
notes: as for B2
B7: UreA-His R23A (natural protein)
chain: T1 sequence with R23A
notes: as for B2
B8: UreA-His K22A (natural protein)
chain: T1 sequence with K22A
notes: as for B2
B9: Helicobacter pylori Hsp60 with a 6 × His tag on its C terminus (natural protein, Helicobacter pylori 26695, UniProt P42383 1-546, looked up)
chain: MAKEIKFSDSARNLLFEGVRQLHDAVKVTMGPRGRNVLIQKSYGAPSITKDGVSVAKEIELSCPVANMGAQLVKEVASKTADAAGDGTTTATVLAYSIFKEGLRNITAGANPIEVKRGMDKAAEAIINELKKASKKVGGKEEITQVATISANSDHNIGKLIADAMEKVGKDGVITVEEAKGIEDELDVVEGMQFDRGYLSPYFVTNAEKMTAQLDNAYILLTDKKISSMKDILPLLEKTMKEGKPLLIIAEDIEGEALTTLVVNKLRGVLNIAAVKAPGFGDRRKEMLKDIAILTGGQVISEELGLSLENAEVEFLGKAGRIVIDKDNTTIVDGKGHSHDVKDRVAQIKTQIASTTSDYDKEKLQERLAKLSGGVAVIKVGAASEVEMKEKKDRVDDALSATKAAVEEGIVIGGGAALIRAAQKVHLNLHDDEKVGYEIIMRAIKAPLAQIAINAGYDGGVVVNEVEKHEGHFGFNASNGKYVDMFKEGIIDPLKVERIALQNAVSVSSLLLTTEATVHEIKEEKAAPAMPDMGGMGGMGGMGGMM
notes: also called recombinant Hsp60; source: E. coli BL21(DE3), purified (Ni-NTA, Sephadex G-75 gel filtration); not shown: His6, C-terminal, kept

The target of assay [1] is B9. The experiment in a line: SPR; BIAcore T100; Hsp60 immobilized on CM5 chip (~600 RU); UreA-His or mutants as analytes (0.36-2.19 μM); PBS pH 7.4, 30 μl/min, 25°C; kinetic analysis, global fit to 1:1 Langmuir model. To be noted: both partners purified. For orientation: In SPR one partner is held on a chip, and binding of the other changes the refractive index at the surface.

The target in assay [2] is T1, UreA-GST (UreA fused with GST tag on …). Description: pull-down; GST-fused proteins on glutathione Sepharose 4B beads (20 μl), incubated with 0.4 ml purified Hsp60 (1 mg/ml in 50 mM Tris-HCl, pH 8.0) at 4°C for 2 h; washed four times; Western blot (anti-His) and SDS-PAGE. To be noted: both partners purified. On the technique in general: A western blot detects proteins with antibodies after separation by electrophoresis.

These results are taken from article PMC6370633, “Mechanistic Insight Into the Interaction Between Helicobacter pylori Urease Subunit α and Its Molecular Chaperone Hsp60” (Frontiers in Microbiology, 2019).

For orientation: Kd means the concentration at which binding is half-saturated. Low values mean a tighter complex, high ones a looser complex. For orientation: koff means a measure of how fast the partners let go of each other. A higher koff goes with a short-lived complex. One may read the kon as a measure of how fast the partners come together. Low values mean slower complex formation, high ones faster complex formation.

Where a chain is given by its changes, count along the chain named.

In assay [1], B1 gave a dissociation constant (Kd) of 17 nM, an off-rate constant (koff) of 0.000126 s⁻¹ and an association rate constant (kon) of 7286 ± 15 M⁻¹ s⁻¹.

In assay [1], B2 came in with a Kd of 460 nM, a koff of 0.0122 s⁻¹ and an association rate constant (kon) of 26200 ± 250 M⁻¹ s⁻¹.

In assay [1], B3 showed an equilibrium dissociation constant (Kd) of 140 nM, a koff of 0.00567 s⁻¹ and a kon of 40200 ± 1670 M⁻¹ s⁻¹.

In assay [1], B4 gave a Kd of 2000 nM, a koff of 0.00227 s⁻¹ and an on-rate constant (kon) of 1160 ± 41 M⁻¹ s⁻¹.

In assay [1], B5 yielded a Kd of 210 nM, an off-rate constant (koff) of 0.00115 s⁻¹ and a kon of 5400 ± 214 M⁻¹ s⁻¹.

For the molecule B6, in assay [1], the equilibrium dissociation constant (Kd) was 150 nM, the off-rate (koff) amounted to 0.00164 s⁻¹ and the association rate constant (kon) was found to be 11200 ± 287 M⁻¹ s⁻¹.

As for B7, in assay [1], the dissociation constant (Kd) amounted to 280 nM, the dissociation rate constant (koff) turned out to be 0.00144 s⁻¹ and the association rate constant (kon) stood at 5070 ± 85 M⁻¹ s⁻¹.

As for B8, in assay [1], binding was put at a Kd of 310 nM, the koff stood at 0.00179 s⁻¹ and the kon is 5840 ± 146 M⁻¹ s⁻¹.

On to B9, for which, in assay [2], the “stoichiometry N” value is ~1 Hsp60:UreA-GST.
